Measured values reported in patent US20040087498A1, “Modified factor VII” (Novo Nordisk Health Care AG, priority 1991, published 2004).
“And” between values parts separate entries of the source, which are not always exact repeats. Equal entries are not always repeated.

Key:
[1] = ELISA for DEGR-FVIIa in rabbit plasma; format: in vivo; settings: for FVIIa ELISA, DEGR-FVIIa in rabbit plasma, individual animals: listed as DEGR-FVIIa
Experimental: The test drug delivery for the animals consisted of an initial bolus injection immediately prior to balloon angioplasty, followed by a continuous systemic infusion by osmotic pump via the internal jugular vein. The duration of the drug infusion was 3 days. The control animals received heparin, 150 U/kg IV bolus, prior to balloon angioplasty followed by saline infusion. The DEGR-FVIIa treated animals received a 1 mg/kg bolus injection followed by 50 μg/kg/hr infusion.
Prothrombin time and concentration of DEGR-FVIIa in the blood were determined at immediately pre-bolus injection of the test compound, 1 hr post bolus injection, and at 3 days at the end of continuous infusion. One to two mls of citrated plasma was obtained and the prothrombin times and antigen levels determined.
An ELISA assay was used to determine the concentration of DEGR-FVIIa in plasma samples from the control and DEGR-FVIIa treated rabbits. The assay involved first diluting an anti-human FVII monoclonal antibody (Dr. W. Kisiel, U. of New Mexico) to 2.0 μg/ml in 0.1 M carbonate buffer pH 9.6, and adding 100 μl/well to 96-well plates. The plates were then incubated at 4° C. overnight and subsequently washed two times using wash buffer (PBS, pH 7.4, containing 0.05% Tween 20).
After blocking, a standard dilution series of DEGR-FVIIa ranging from 20-0.027 ng/ml was added, along with a dilution series of the test rabbit plasma (1:100 to 1:4000 in blocking buffer) applied at 100 μl/well. Non-immune rabbit plasma was used as a negative control. Plates were then incubated for 1 hr at 37° C. followed by four washes with wash buffer.
DEGR-FVIIa was detected by adding 100 μl/well of a 1:1,000 dilution of rabbit anti-human FVII polyclonal antibody (Dr. Kisiel, U. New Mexico) in blocking buffer. Plates were incubated for 1 hr at 37° C., followed by five washes with wash buffer. Specific antibody binding was detected using 100 μl/well of a 1:2,000 dilution of goat anti-rabbit IgG antibody-peroxidase conjugate (Tago, Inc.). Plates were incubated for 1 hr at 37° C. and washed six times with wash buffer. Finally, 100 μl of substrate solution was added (0.42 mg/ml of o-phenylenediamine dihydrochloride [OPD] in 0.2 M citrate buffer, pH 5.0, containing 0.3% H2O2). After 1-3 min at room temp. the color reaction was stopped by adding 100 μl/well of 1N H2SO4 and the plates were read at 490 nm on a Microplate spectrophotometer. The concentration of DEGR-FVIIa in the plasma samples was determined by comparing the A490 values of the unknown to those of the DEGR-FVIIa standard curve.

[2] = test system: intimal lesion development in femoral arteries; test: Morphometry of intima and media after balloon angioplasty in atherosclerotic rabbits; format: in vivo; settings: rabbit femoral artery, three weeks post-angioplasty; 1 mg/kg bolus + 50 μg/kg/hr for 3 days
Experimental: DEGR-FVIIa was evaluated for its ability to modulate lesion development following balloon angioplasty in New Zealand White (NZW) atherosclerotic rabbits. This animal model has been well characterized and has proven to be a good model for evaluating anti-thrombotic compounds on vascular lesion development (Gimple et al., Circulation 86:1536-1546 (1992), and Rogosta et al., Circulation 89:1262-1271 (1994)). The animal model used to evaluate DEGR-FVIIa is essentially as described by Ragosta, ibid.
Anesthesia was induced in rabbits with 5 mg/kg xylazine and 35 mg/kg ketamine by intramuscular injection. The proximal femoral arteries were exposed by cutdown below the inguinal ligament with proximal and distal ligatures. The isolated segments were cannulated with 27 gauge needles. A vent was created by needle puncture. The isolated segments were flushed with saline to clear residual blood, and desiccated by air infused at a rate of 80 ml/min for 8 minutes. Following air-drying, the isolated segments were again flushed with saline and the ligatures removed. Hemostasis was maintained with non-occlusive local pressure. The segments were demarcated with metal clips. Local spasm was treated with Xylocaine 1% locally. The day following surgery, the animals were placed on 1% cholesterol and 6% peanut oil diet for one month until balloon angioplasty. […]

Substance: DEGR-Factor VIIa: Recombinant human Factor VIIa with its active site derivatized by Dansyl-L-Glu-Gly-Arg-chloromethyl Ketone (DEGRck)
- FVIIa ELISA, DEGR-FVIIa in rabbit plasma, individual animals ([1]; 1 hour after 1 mg/kg bolus, 50 μg/kg/hr infusion): 3,210 ng/ml and 4,950 ng/ml and 4,543 ng/ml and 4,900 ng/ml and 4,600 ng/ml and 2,145 ng/ml and 2,830 ng/ml
- FVIIa ELISA, DEGR-FVIIa in rabbit plasma, individual animals ([1]; 3 days, end of 50 μg/kg/hr infusion): 102 ng/mL and 7 ng/mL and 661 ng/mL and 117 ng/mL and 502 ng/mL and 212 ng/mL and 228 ng/mL
- FVIIa ELISA, DEGR-FVIIa in rabbit plasma, individual animals ([1]; Pretreatment): 0 ng/ml and 1 ng/ml and 13 ng/ml (2×) and 65 ng/ml and 4 ng/ml and 9 ng/ml
- DEGR-FVIIa antigen level in the plasma ([1]; rabbit, 1 hr time point, range over animals): 2 to 6 µg/mL
- Intima [2]: 0.438 mm2
- Media [2]: 0.329 mm2
